Experimental data taken from patent publication US20250018014A1, “METHOD FOR TREATING AND/OR PREVENTING REGNASE-1-RELATED DISEASE” (OSAKA UNIVERSITY, priority 2018, published 2025).
Substitutions are numbered along the chain they refer to. No end group written: not given here.

T1: Peptide 2 (AFPPREYWSEPYPLPPPTC-NH2), biotin-conjugated (human, also: biotin-conjugated, position not given here)
T1 peptide: AFPPREYWSEPYPLPPPTC-NH2

T2: FL_Reg1 (human full-length Regnase-1) (Homo sapiens, UniProt Q5D1E8)
T2 construct: made in house; host or cells: Expi293 cells
T2 sequence (Q5D1E8 1-599): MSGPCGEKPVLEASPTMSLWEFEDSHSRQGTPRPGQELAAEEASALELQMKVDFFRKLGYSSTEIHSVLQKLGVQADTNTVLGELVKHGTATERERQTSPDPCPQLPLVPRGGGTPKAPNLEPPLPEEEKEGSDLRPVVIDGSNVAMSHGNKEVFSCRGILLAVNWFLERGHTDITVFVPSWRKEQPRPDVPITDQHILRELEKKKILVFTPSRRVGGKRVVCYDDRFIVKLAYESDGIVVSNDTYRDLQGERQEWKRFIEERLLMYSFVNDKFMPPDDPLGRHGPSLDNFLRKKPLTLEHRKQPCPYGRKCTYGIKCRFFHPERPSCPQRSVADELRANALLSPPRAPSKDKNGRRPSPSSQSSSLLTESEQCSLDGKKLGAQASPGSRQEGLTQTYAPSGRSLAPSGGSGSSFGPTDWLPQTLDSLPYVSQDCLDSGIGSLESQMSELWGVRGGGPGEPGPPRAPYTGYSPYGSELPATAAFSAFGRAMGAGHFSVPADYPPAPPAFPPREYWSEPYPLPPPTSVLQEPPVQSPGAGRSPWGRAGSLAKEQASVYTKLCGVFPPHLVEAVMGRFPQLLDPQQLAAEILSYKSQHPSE

T3: Regnase-1 phosphorylation by TBK1 (Homo sapiens, UniProt Q5D1E8)
T3 construct: GST (N, cleaved yes); made in house; host or cells: Expi293 cells
T3 sequence (Q5D1E8 1-599): T2 sequence (Q5D1E8 1-599)

B1: REB0014 (antibody, V domains shown)
VH: QSLEESGGGLVKPGGTLTLTCKASGIDFSSYYYMCWVRQAPGKGLEWIACIYSGDGSSYYVSWANGRFTISKTSSATVTLQMTSLTAADTATYFCARDLGNLWGPGTLVTVSS
VL: QVLTQTPASVSAAVGGTVTINCQASQSVYKNSGLSWFQQKPGQSPKRLIYSASTLDSGVPSRFKGSGSGTQFTLTISDVQCDDAATYYCLGIYVCSSVDCGAFGGGTEVVVKG
notes: Cloned from immunized rabbits, expressed in HEK293 cells, purified by Protein A; also called anti-Regnase-1 antibody; anti-non-phosphorylated Regnase-1 peptide antibody
B2: REB0014: anti-Regnase-1 antibody; heavy chain SEQ ID NO: 26, light chain SEQ ID NO: 27 (antibody)
heavy: QSLEESGGGLVKPGGTLTLTCKASGIDFSSYYYMCWVRQAPGKGLEWIACIYSGDGSSYYVSWANGRFTISKTSSATVTLQMTSLTAADTATYFCARDLGNLWGPGTLVTVSSGQPKAPSVFPLAPCCGDTPSSTVTLGCLVKGYLPEPVTVTWNSGTLTNGVRTFPSVRQSSGLYSLSSVVSVTSSSQPVTCNVAHPATNTKVDKTVAPSTCSKPTCPPPELLGGPSVFIFPPKPKDTLMISRTPEVTCVVVDVSQDDPEVQFTWYINNEQVRTARPPLREQQFNSTIRVVSTLPITHQDWLRGKEFKCKVHNKALPAPIEKTISKARGQPLEPKVYTMGPPREELSSRSVSLTCMINGFYPSDISVEWEKNGKAEDNYKTTPAVLDSDGSYFLYNKLSVPTSEWQRGDVFTCSVMHEALHNHYTQKSISRSPGK
light: QVLTQTPASVSAAVGGTVTINCQASQSVYKNSGLSWFQQKPGQSPKRLIYSASTLDSGVPSRFKGSGSGTQFTLTISDVQCDDAATYYCLGIYVCSSVDCGAFGGGTEVVVKGDPVAPTVLIFPPAADQVATGTVTIVCVANKYFPDVTVTWEVDGTTQTTGIENSKTPQNSADCTYNLSSTLTLTSTQYNSHKEYTCKVTQGTTSVVQSFNRGDC
B3: REB0007 (antibody, V domains shown)
VH: QEQLEESGGDLVKPEGSLTLTCTASGFSFNSRYWICWVRQAPGKGLEWIGCIVSGDSNTYYASWAKGRFTISKTSSTTVTLQMTSLTAADTATYFCARWYTSSRPGLWGPGTLVTVSS
VL: DVVMTQTPASVSEPVGGTVTIKCQASQSISSYLSWYQQKPGQPPKLLIYSATNLASGVSSRFKGSRFGTEFTLTISDLECDDAATYYCQCSYYVSGFAFGGGTEVVVKG
notes: as for B1
B4: REB0022 (antibody, V domains shown)
VH: QEQLEESGGDLVKPEGSLTLTCTASGGSFSSRYWMCWVRQAPGKGLEWIACIVIGDRNNYYASWAKGRFTISKTSSTTVTLQMTSLTAADTATYFCARWHSSTAPSLWGPGTLVTVSS
VL: B3 VL with K22N, S50K, T52S, N53T, R66G, F67S, D81A, A98V
notes: as for B1
B5: REB0022: anti-Regnase-1 antibody; heavy chain SEQ ID NO: 28, light chain SEQ ID NO: 29 (antibody)
heavy: QEQLEESGGDLVKPEGSLTLTCTASGGSFSSRYWMCWVRQAPGKGLEWIACIVIGDRNNYYASWAKGRFTISKTSSTTVTLQMTSLTAADTATYFCARWHSSTAPSLWGPGTLVTVSSGQPKAPSVFPLAPCCGDTPSSTVTLGCLVKGYLPEPVTVTWNSGTLTNGVRTFPSVRQSSGLYSLSSVVSVTSSSQPVTCNVAHPATNTKVDKTVAPSTCSKPTCPPPELLGGPSVFIFPPKPKDTLMISRTPEVTCVVVDVSQDDPEVQFTWYINNEQVRTARPPLREQQFNSTIRVVSTLPITHQDWLRGKEFKCKVHNKALPAPIEKTISKARGQPLEPKVYTMGPPREELSSRSVSLTCMINGFYPSDISVEWEKNGKAEDNYKTTPAVLDSDGSYFLYNKLSVPTSEWQRGDVFTCSVMHEALHNHYTQKSISRSPGK
light: DVVMTQTPASVSEPVGGTVTINCQASQSISSYLSWYQQKPGQPPKLLIYKASTLASGVSSRFKGSGSGTEFTLTISDLECADAATYYCQCSYYVSGFVFGGGTEVVVKGDPVAPTVLIFPPAADQVATGTVTIVCVANKYFPDVTVTWEVDGTTQTTGIENSKTPQNSADCTYNLSSTLTLTSTQYNSHKEYTCKVTQGTTSVVQSFNRGDC
B6: REB0007: anti-Regnase-1 antibody; heavy chain SEQ ID NO: 24, light chain SEQ ID NO: 25 (antibody)
heavy: QEQLEESGGDLVKPEGSLTLTCTASGFSFNSRYWICWVRQAPGKGLEWIGCIVSGDSNTYYASWAKGRFTISKTSSTTVTLQMTSLTAADTATYFCARWYTSSRPGLWGPGTLVTVSSGQPKAPSVFPLAPCCGDTPSSTVTLGCLVKGYLPEPVTVTWNSGTLTNGVRTFPSVRQSSGLYSLSSVVSVTSSSQPVTCNVAHPATNTKVDKTVAPSTCSKPTCPPPELLGGPSVFIFPPKPKDTLMISRTPEVTCVVVDVSQDDPEVQFTWYINNEQVRTARPPLREQQFNSTIRVVSTLPITHQDWLRGKEFKCKVHNKALPAPIEKTISKARGQPLEPKVYTMGPPREELSSRSVSLTCMINGFYPSDISVEWEKNGKAEDNYKTTPAVLDSDGSYFLYNKLSVPTSEWQRGDVFTCSVMHEALHNHYTQKSISRSPGK
light: DVVMTQTPASVSEPVGGTVTIKCQASQSISSYLSWYQQKPGQPPKLLIYSATNLASGVSSRFKGSRFGTEFTLTISDLECDDAATYYCQCSYYVSGFAFGGGTEVVVKGDPVAPTVLIFPPAADQVATGTVTIVCVANKYFPDVTVTWEVDGTTQTTGIENSKTPQNSADCTYNLSSTLTLTSTQYNSHKEYTCKVTQGTTSVVQSFNRGD

Legend:
[1] = target: T1, Peptide 2 (AFPPREYWSEPYPLPPPTC-NH2), …; test: flow cytometry of streptavidin beads carrying the biotinylated antigen, anti-rabbit IgG Alexa488
Method: (§1) These beads were mixed with each anti-Regnase-1 antibody, and they were allowed to react. Thereafter, Anti-Rabbit IgG1 Alexa488 (molecular probes, A21244) was mixed and reacted, and analysis was performed with iQue screener PLUS (intellicyt). Data was analyzed with FlowJo ver10.

[2] = target: T4, Peptide 2 ([…]-NH2), partial peptide of human Regnase-1 (Homo sapiens, UniProt Q5D1E8); test: Binding of anti-non-phosphorylated Regnase-1 peptide antibodies to bead-bound Peptide 2 (iQue screener); conditions: streptavidin-immobilized beads; histograms FIG. 32
T4 construct: made in house; host or cells: chemical synthesis
Method: (§2) • Biotin-Conjugated FL_Reg1, Biotin-Conjugated Peptide • […], biotin-conjugated peptide • AFPPREYWSEPYPLPPPTC-NH2, and biotinylated BSA (Sigma, A8549) were each bound to streptavidin-immobilized beads.
as §1

[3] = target: T2, FL_Reg1 (human full-length Regnase-1); test: Binding of anti-non-phosphorylated Regnase-1 peptide antibodies to bead-bound full length human Regnase-1 (iQue screener); conditions: streptavidin-immobilized beads; histograms FIG. 32
Method: as §2, §1

[4] = target: T3, Regnase-1 phosphorylation by TBK1; test: Inhibitory activity of anti-Regnase-1 antibodies against Regnase-1 phosphorylation by TBK1 (Phos-tag gel, western blotting); assay type: biochemical; conditions: antibody at final concentrations of 16.7 μg/mL and 5.0 μg/mL; relative to Control group
Method: To a solution (ATP buffer) containing Kinase Assay Buffer III (manufactured by SignalChem) supplemented with 2 mM DTT, 100 μM sodium vanadate, 2 mM manganese chloride, and 15 μM ATP, dephosphorylated Regnase-1 was mixed at 150 nM. Four microliters of this solution and 4 μL of HEPES Buffered Saline containing 50 μg/mL or 15 μg/mL of anti-Regnase-1 antibody were mixed, and this was allowed to react for one hour. This reaction solution was mixed with 4 μL of ATP buffer containing 150 nM of each kinase (IKKβ or TBK1), and further reacted for one hour. After the reaction, 4 μL of 4× Laemmli Sample buffer (manufactured by Bio-Rad) was added and this mixture was incubated at 95° C. for five minutes for protein denaturation treatment. This sample was ice-cooled for three minutes, and 10 μL of it was added to SuperSep Phos-tag 7.5% 17 wells (manufactured by Wako) placed in EasySeparator (manufactured by Wako). As a marker, 10 μL of WIDE-VIEW Prestained Protein Size Marker III (manufactured by Wako) was added, and the EasySeparator was filled with Tris-Glycine SDS buffer (manufactured by Takara). After electrophoresis at 175 V for 70 minutes, this was washed with 10% Tris-Glycine SDS buffer containing 5 mM EDTA and 20% MeOH for 10 minutes. After two further washings, washing was performed with 10% Tris-Glycine SDS buffer containing 20% MeOH for ten minutes. The washed gel was placed in the Trans-Blot Turbo Transfer Pack (manufactured by Bio-Rad), and transferred using the BioRad Transfer Turbo (manufactured by Bio-Rad). […] Chemiluminescence was detected using ImageQuant LAS4000 mini (manufactured by GE Healthcare).
A band for phosphorylated Regnase-1 was detected due to treatment with each kinase (FIG. 33A). Band densities were measured with Image Quant-TL (manufactured by GE Healthcare). The relative value for the band density of the sample to which each compound was added was calculated, considering the band density of the kinase-added sample of the Control group, to which no compound was added, as 1. […]

Row | Molecule | binding result [1] | binding to Peptide 2 compared with biotinylated BSA [2] | binding to FL_Reg1 compared with biotinylated BSA [3] | density of the phosphorylated Regnase-1 band in TBK1 treatment [4]
1 | B1 | binds |  |  | 
2 | B2 |  | bound more strongly | bound more strongly | decreased
3 | B3 | binds |  |  | 
4 | B4 | binds |  |  | 
5 | B5 |  | bound more strongly | bound more strongly | decreased
6 | B6 |  | bound more strongly | bound more strongly | decreased
